Data from patent publication US20100331250A1.

How the values were obtained:
human VEGF165 (human) [1] = biological target: human VEGF165 (human) (UniProt P15692); assay: cell-based or functional assay
human VEGF165 (human) [2] = biological target: human VEGF165 (human) (UniProt P15692); assay: quantitative ELISA; serial concentrations of fusion protein mixed with 40 pM human VEGF165, detection with anti-human IgG Fc-HRP

Sequence of UniProt P15692 (P15692 other isoform, or with tags, fused parts or gaps limits assumed): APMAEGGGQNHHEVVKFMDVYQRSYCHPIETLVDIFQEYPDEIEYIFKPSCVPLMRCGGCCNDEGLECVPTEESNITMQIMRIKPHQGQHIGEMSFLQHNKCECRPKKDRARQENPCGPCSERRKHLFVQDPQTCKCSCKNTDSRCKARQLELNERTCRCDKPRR

growth activity of VEGF on HUVEC (CCK-8, endothelial cell growth assay) (human VEGF165 (human) [1]): 28 pM
inhibitory activity against VEGF (HUVEC growth assay) (human VEGF165 (human) [1]): 14 pM
EC50 (human VEGF165 (human) [2]): 0.136 µg/mL
Substance: VEGF-Trap (Fc fusion)
